From patent US20200055930A1 (Pfizer, published 2020) come the findings set out here.

For assay [1], the target named is T1, Mouse Fc-human GDF15 (Mu IgG1Fc_Fxa_Hu GDF15) (human (GDF15 part)).
T1 construct: Whole fusion entry; also called Murine dimeric IgG1 Fc-human GDF-15 with FXa cleavage site; control human GDF15
T1 chain: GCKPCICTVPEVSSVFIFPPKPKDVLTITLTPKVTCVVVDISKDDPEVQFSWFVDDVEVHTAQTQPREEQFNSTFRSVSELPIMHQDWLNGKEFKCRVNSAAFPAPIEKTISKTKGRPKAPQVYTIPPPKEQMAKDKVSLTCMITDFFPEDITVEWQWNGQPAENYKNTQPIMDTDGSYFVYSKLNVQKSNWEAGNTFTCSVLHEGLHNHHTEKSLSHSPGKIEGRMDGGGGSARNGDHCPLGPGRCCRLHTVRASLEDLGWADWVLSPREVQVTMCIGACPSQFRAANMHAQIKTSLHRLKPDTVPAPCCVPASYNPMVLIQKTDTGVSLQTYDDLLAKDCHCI
As to the kind of experiment: SPR BIAcore T200 37C; Fc-GDF15 captured, IgG analyte. On the procedure: Mouse Fc-human GDF15 (Mu IgG1Fc_Fxa_Hu GDF15; SEQ ID NO:2), Mouse Fc-mouse GDF15 (Mu IgG1Fc_Fxa_Mu GDF15; SEQ ID NO:5) and Mouse Fc-cynomolgus monkey GDF15 (Mu IgG1Fc_Fxa_Cyno GDF15; SEQ ID NO:4) were captured onto three different flow cells of a CM4 sensorchip (catalogue number BR100534, GE Healthcare) surface using the Mouse Antibody Capture Kit (BR100838, GE Healthcare) according to the manufacturer's protocol. The running and sample buffer was 10 mM HEPES pH 7.4, 0.15M NaCl, 3 mM EDTA, 0.05% P-20 (HBS-EP+). The final capture levels of Mu IgG1Fc_Fxa_Hu GDF15, Mu IgG1Fc_Fxa_Mu GDF15 and Mu IgG1Fc_Fxa_Cyno GDF15 were 40 resonance units (RU), 32 RU and 25 RU respectively. Flow cell 1 was used as a reference flow cell. […] The dissociation was monitored for 2.8 hours and the surface was regenerated with 10 mM Glycine pH 1.7. Binding affinities and rate constants were determined for murine and cynomolgus monkey GDF15 by fitting the resulting sensorgram data to a 1:1 Langmuir model in BIAcore T200 Evaluation software version 2.0 (GE Healthcare). […]
A general note: SPR reads the build-up and loss of mass on a sensor chip optically.

Assay [2] concerns the target Mouse Fc-mouse GDF15 (Mu IgG1Fc_Fxa_Mu GDF15) (mouse (GDF15 part)). As to the kind of experiment: SPR BIAcore T200 37C; Fc-GDF15 captured, monomeric Fc-Fab analyte; murine GDF15 ligand (Mu IgG1Fc_Fxa_Mu GDF15), first run.
Assay [3] has the same target. As to the kind of experiment: SPR BIAcore T200 37C; Fc-GDF15 captured, monomeric Fc-Fab analyte; average.
For assay [4] the target is unchanged. The assay is described as follows: SPR BIAcore T200 37C; Fc-GDF15 captured, monomeric Fc-Fab analyte.
For assay [5] the target is unchanged. As to the kind of experiment: SPR BIAcore T200 37C; Fc-GDF15 captured, monomeric Fc-Fab analyte; murine GDF15 ligand (Mu IgG1Fc_Fxa_Mu GDF15), second run.
Assay [6] addresses T1, Mouse Fc-human GDF15 (Mu IgG1Fc_Fxa_Hu …). As to the kind of experiment: SPR BIAcore T200 37C; Fc-GDF15 captured, monomeric Fc-Fab analyte. The text has this:
(§1) To understand the KD value, without the avidity effect, of GDF15_001 binding to GDF15, monomeric Fc-Fab was produced and tested in the same assay used in Example 2. […] Mu IgG1Fc_Fxa_Hu GDF15, Mu IgG1Fc_Fxa_Mu GDF15 and Mu IgG1Fc_Fxa_Cyno GDF15 were captured onto three different flow cells of a CM4 sensorchip (catalogue number BR100534, GE Healthcare) surface using the Mouse Antibody Capture Kit (BR100838, GE Healthcare) according to the manufacturer's protocol. The running and sample buffer was 10 mM HEPES pH 7.4, 0.15M NaCl, 3 mM EDTA, 0.05% P-20 (HBS-EP+). The final capture levels of Mu IgG1Fc_Fxa_Hu GDF15, Mu IgG1Fc_Fxa_Mu GDF15 and Mu IgG1Fc_Fxa_Cyno GDF15 were 19 resonance units (RU), 22 RU and 19 RU respectively. Flow cell 1 was used as a reference flow cell. […] The dissociation was monitored for 1200 seconds and the surface was regenerated with 10 mM Glycine pH 1.7. Binding affinities and rate constants were determined by fitting the resulting sensorgram data to a 1:1 Langmuir model in BIAcore T200 Evaluation software version 2.0 (GE Healthcare).

In assay [7] the target is T2, Mouse Fc-cynomolgus monkey GDF15 (Mu IgG1Fc_Fxa_Cyno GDF15) (cynomolgus monkey (GDF15 part)).
T2 construct: Whole fusion entry; also called Murine dimeric IgG1 Fc-cyno GDF-15 with FXa cleavage site
T2 chain: T1 chain with H239R, R254H, A287E, T296M, S297N, I345V
The description is as above.
Description: as §1

Numbering of substitutions follows the chain as printed. Values joined by “and” are separate entries in the source; they are usually repeats but may differ in a detail not shown here. Equal values may be shown once.

B1: GDF15_0297 (antibody, mouse IgG1, kappa, V domains shown)
VH: QVQLQQPGAELVKPGASVKMSCKASGYPFEGWYIHWVKQRPGQGLEWMGWNNPRTGLTNHAQKFQGKVTMTRDTSSSTAYMQLSSLTSEDSAVYYCARGVGADAAFDIWGQGTTLTVSS
VL: DIVMTQSPSSLSVSAGEKVTMSCRSSQSLLWKHGYNYLDWYQQKPGQPPKLLIYLDRNRAHGVPDRFTGSGSGTDFTLTISSVQAEDLAVYYCMQSFETPITFGGGTKLEIKR
notes: also called GDF15_297; GDF_0297
Consider B1, for which the T½ in assay [1] was 17.7 h and 14.9 h.

B2: monomeric GDF15_001 (Fab, V domains shown)
VH: QVQLVQSGAEVKKPGSSVKVSCKASGYTFSSYNIDWVRQAPGQGLEWMGGINPIFGTAFYNQKFQGRVTITADESTSTAYMELSSLRSEDTAVYYCAREAITTVGAMDHWGQGTLVTVSS
VL: EIVLTQSPATLSLSPGERATLSCRTSQSVHNYLAWYQQKPGQAPRLLIYDASTRADGIPARFSGSGSGTDFTLTISSLEPEDFAVYYCQQFWSWPWTFGQGTKVEIK
notes: only the variable domains of GDF15_001 are tied to it; also called CH23LS-GDF15_001; CH23LS-GBT-GDF15_001
By Kd is commonly meant the constant that tells how readily two partners part at equilibrium. The koff is a measure of how fast the partners let go of each other. For orientation: kon means the rate constant with which the complex forms. As to B2, the Kd in assay [2] came to 2.11 nM; in assay [3] it was 1.97 nM; in assay [5] it was 1.82 nM. Also, the koff in assay [3] was 0.00326 s⁻¹; in assay [4] it was 0.00341 s⁻¹ and 0.0031 s⁻¹. Besides, the kon in assay [3] was 1.66e+06 M⁻¹ s⁻¹; in assay [4] it was 1.62e+06 M⁻¹ s⁻¹ and 1.7e+06 M⁻¹ s⁻¹. The T½ is 3.39 min and 3.73 min in assay [4]; 8.54 h and 4.2 h in assay [6]; 2.57 h and 2.05 h in assay [7].

B3: GDF15_014 (antibody, human IgG1, kappa, V domains shown)
VH: B2 VH with G50Q, F55N, T57L, H109Y
VL: EIVLTQSPATLSLSPGERATLSCRTSQNVHNYLAWYQQKPGQAPRLLIYDASNRATGIPARFSGSGSGTDFTLTISSLEPEDFAVYYCQQFWSDPYTFGQGTKVEIKR
notes: Tested in bivalent format
Regarding B3, the T½ in assay [1] was 10.7 h and 13 h.

B4: GDF15_004 (antibody, human IgG1, kappa, V domains shown)
VH: B2 VH with G50Q, I54N, F55N, T57L, F59N, N61A, V104I, H109Y
VL: B3 VL with Q27E, N28S, N31S, N53T, T56D
notes: Tested in bivalent format
B4: the T½ in assay [1] is 2.7 h and 2.35 h.

B5: GDF15_020 (antibody, human IgG1, kappa, V domains shown)
VH: B2 VH with S31D, I34M, G50Q, I54N, F55N, T57L, F59N, H109Y
VL: B3 VL with T25A, V29L, N31S, N53T, T56D
notes: Tested in bivalent format
Consider B5, for which, in assay [1], the T½ is 2.03 h and 1.7 h.

B6: GDF15_003 (antibody, human IgG1, kappa, V domains shown)
VH: B2 VH with S30T, G50Q, I54N, F55N, T57L, A100Q, H109Y
VL: B3 VL with T25A, N28S, V29L, H30S, N31S, S52K, T56D, W92S
notes: Tested in bivalent format
As to B6, the T½ in assay [1] is 2.67 h and 2.1 h.

B7: GDF15_013 (antibody, human IgG1, kappa, V domains shown)
VH: B2 VH with S31D, I34M, I54N, F55N, T57L, H109Y
VL: B3 VL with Q27E, N28S, N31S, S93N, D94W, Y96W
notes: Tested in bivalent format
In the case of B7, the T½ in assay [1] is 2.89 h and 2.56 h.

B8: GDF15_017 (antibody, human IgG1, kappa, V domains shown)
VH: B2 VH with S30T, S31D, G50Q, I54N, F55N, T57L, T91N, H109Y
VL: B3 VL with N28S, N31S, S52K, N53T, W92S
notes: Tested in bivalent format
In the case of B8, the T½ in assay [1] is 2.35 h and 2.22 h.

B9: GDF15_022 (antibody, human IgG1, kappa, V domains shown)
VH: B2 VH with S31D, G50Q, I54N, F55N, T57L, A58I, Y60F, A100V, H109Y
VL: B3 VL with N28S, N31S, S52K, N53T, T56D, W92S
notes: Tested in bivalent format
With B9, in assay [1], the T½ was 10.9 h and 13.3 h.

B10: GDF15_010 (antibody, human IgG1, kappa, V domains shown)
VH: B2 VH with S31D, I54N, F55N, T57L, Y60F, H109Y
VL: B3 VL with N28S, V29L, N31S, S93N, Y96W
notes: Tested in bivalent format
B10: the T½ in assay [1] is 13.1 h and 10.8 h.

B11: GDF15_015 (antibody, human IgG1, kappa, V domains shown)
VH: B2 VH with S31D, I34M, G50Q, I54N, F55N, T57L, M107T, H109Y
VL: B3 VL with N31S, R54L, T56D, W92S, S93N, Y96W
notes: Tested in bivalent format
As to B11, the T½ in assay [1] is 1.94 h and 1.86 h.

B12: GDF15_021 (antibody, human IgG1, kappa, V domains shown)
VH: B2 VH with F55N, T57L, A58I, Y60F
VL: B3 VL with Q27E, N31S, R54L, T56D
notes: Tested in bivalent format
As to B12, in assay [1], the T½ is 0.661 h and 0.547 h.

B13: GDF15_0470 (antibody, human IgG1, kappa, V domains shown)
VH: QVQLVQSGAEVKKPGASVKVSCKASGYPFEGWYIHWVRQAPGQGLEWMGWNNPRTGLTNHAQKFQGRVTMTRDTSISTAYMELSRLRSDDTAVYYCARGVGADAAFDIWGQGTMVTVSS
VL: EIVLTQSPATLSLSPGERATLSCRSSQSLLWKHGYNYLDWYQQKPGQAPRLLIYLDRNRAHGIPARFSGSGSGTDFTLTISSLEPEDFAVYYCMQSFETPITFGQGTKVEIKR
notes: Tested in bivalent format; also called GDF15-470
B13: the T½ in assay [1] is 3.7 h and 4.47 h.
